Reference: PMC2190570
Values joined by “and” are separate entries in the source; they are usually repeats but may differ in a detail not shown here. Identical values can stand only once. Blank lines part the entries; values can stand above or below the molecule they belong to.

What was measured:
[1] = target: lamin B1Δrod mutant (human) (UniProt P20700); assay: binding to an immobilised lamin matrix with urea step elution
[2] = target: wild-type lamin B1 (human) (UniProt P20700); assay: as above
[3] = target: lamin B1Δrod mutant (human) (UniProt P20700); assay: cross-linking
[4] = target: T1, wild-type lamin B1 (human), P20700; assay: binding to an immobilised lamin matrix with urea step elution; conditions: remark: other sources report otherwise
T1 chain: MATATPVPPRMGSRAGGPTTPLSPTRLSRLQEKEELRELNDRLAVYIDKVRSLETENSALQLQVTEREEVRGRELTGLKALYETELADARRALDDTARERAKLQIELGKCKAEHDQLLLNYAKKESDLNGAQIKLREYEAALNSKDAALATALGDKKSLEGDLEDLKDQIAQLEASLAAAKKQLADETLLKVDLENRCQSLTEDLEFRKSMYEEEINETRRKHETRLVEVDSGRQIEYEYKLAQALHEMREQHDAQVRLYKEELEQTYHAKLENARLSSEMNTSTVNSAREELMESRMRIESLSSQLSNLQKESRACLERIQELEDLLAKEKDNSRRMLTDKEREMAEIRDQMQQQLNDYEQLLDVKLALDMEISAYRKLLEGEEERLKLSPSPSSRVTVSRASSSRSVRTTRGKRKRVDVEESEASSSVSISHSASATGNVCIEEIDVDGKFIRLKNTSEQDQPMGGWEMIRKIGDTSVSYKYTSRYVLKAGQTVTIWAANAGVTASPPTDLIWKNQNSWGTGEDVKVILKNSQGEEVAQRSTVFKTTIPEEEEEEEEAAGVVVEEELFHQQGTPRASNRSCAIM

[5] = target: T1, wild-type lamin B1 (human), P20700; assay: cross-linking; conditions: remark: other sources report otherwise

Molecule: wild-type lamin B1 (from UniProt P20700 1-586) (natural protein)
urea concentration at which most protein eluted [1]: 4 M and 7 M

Molecule: lamin C (from UniProt P02545-2 1-572) (natural protein)
urea concentration at which elution began [2]: 3 M
urea concentration at which the majority eluted [2]: 5 to 7 M
urea concentration at which elution began [1]: 0.5 M
urea concentration at which the majority eluted [1]: 2 to 3 M

Molecule: lamin A (from UniProt P02545 1-646) (natural protein)
urea concentration at which the majority eluted [2]: 7 M
urea concentration at which the majority eluted [1]: 2 M and 4 M

Other lines, results leading:

stoichiometry N [3]: 2
Molecule: lamin B1Δrod mutant (from UniProt P20700 1-69; P20700 340-586) (natural protein)

urea concentration at which most protein eluted [4]: 7 M and 4 M
stoichiometry N [5]: 2
B1: wild-type lamin B1, P20700 1-586 (natural protein)
chain: T1 chain
